Reference: patent US20260234242A1 (HAINAN SIMCERE ZAIMING PHARMACEUTICAL, published 2026)
Where two headings read alike, the source gives them in different places. Blank lines part the entries; values can stand above or below the binder they belong to.

Key:
[1] = molecular target: T1, his-tagged human CDH6 extracellular region protein (hCDH6 ECD-his) (human, UniProt P55285 19-615); test: SPR Biacore, antibody captured on Protein A
T1 construct: also called Human CDH6-his; hCDH6-his; not shown: his tag
T1 sequence: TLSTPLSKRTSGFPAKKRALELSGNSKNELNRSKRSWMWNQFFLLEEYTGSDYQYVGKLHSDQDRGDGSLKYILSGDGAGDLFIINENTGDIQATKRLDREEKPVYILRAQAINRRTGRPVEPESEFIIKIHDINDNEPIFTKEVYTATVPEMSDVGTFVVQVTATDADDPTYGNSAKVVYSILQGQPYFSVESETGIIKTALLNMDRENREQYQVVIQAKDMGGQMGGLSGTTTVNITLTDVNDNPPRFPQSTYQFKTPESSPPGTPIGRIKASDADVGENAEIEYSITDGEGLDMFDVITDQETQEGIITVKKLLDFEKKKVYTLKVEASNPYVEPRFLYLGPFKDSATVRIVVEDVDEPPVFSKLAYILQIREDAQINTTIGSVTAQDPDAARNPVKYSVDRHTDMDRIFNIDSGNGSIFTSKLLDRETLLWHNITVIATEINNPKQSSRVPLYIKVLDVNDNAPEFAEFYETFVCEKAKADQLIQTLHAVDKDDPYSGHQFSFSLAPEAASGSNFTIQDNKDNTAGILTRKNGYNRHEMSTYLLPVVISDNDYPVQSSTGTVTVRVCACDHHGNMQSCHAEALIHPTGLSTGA
Experimental: (§1) The affinity of the antibody for the antigen was determined by a multi-cycle kinetic method using a BIAcore 8K instrument. In each cycle, the antibody to be tested was captured using a Protein A chip (purchased from GE, Cat. No. 29-1275-56), and then the antigen human CDH6 protein (hCDH6-his, conventionally synthesized) was injected. The association and dissociation processes of the antibody with the antigen protein were recorded, and finally, the chip was regenerated using Glycine pH 1.5, wherein the mobile phase was HBS-EP+ (10 mM HEPES, 150 mM NaCl, 3 mM EDTA, 0.05% surfactant P20, and 1 mM Ca), the flow rate was 30 μL/min, the association time was 240 s, the dissociation time was 300 s, the regeneration time was 30 s, the detection temperature was 25° C., and the antigen concentration was 31.25-1000 nM. The data were analyzed using Biacore 8K analysis software (version No. 2.0) based on the 1:1 binding model to fit the antibody-antigen binding kinetic parameters, including the association rate constant ka, the dissociation rate constant kd, and the equilibrium dissociation constant KD. The affinity values of the control antibody DS-H01L02 were undetectable. Antibodies not shown in the table had undetectable affinity values.
Four hCDH6-1 humanized antibodies with fewer back mutations were selected, and the affinity for human CDH6 protein was further confirmed using Biacore.

[2] = molecular target: T1, his-tagged human CDH6 extracellular …; test: ELISA, coated antigen
Procedure, shortened: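 Plates coated overnight at 4 °C with his-tagged CDH6 ECD (human; also cyno and murine, residues 19-615) at 1 μg/mL. Chimeric antibody dilutions bound 2 h at 37 °C; TMB read-out at OD450 nm, EC50 from fitted curves.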

[3] = molecular target: T1, his-tagged human CDH6 extracellular …; test: SPR Biacore, antibody captured on Protein A; remark: listed apart in the source
Experimental: as §1
Four hCDH6-6 humanized antibodies with fewer back mutations were selected, and the affinity for human CDH6 protein was further confirmed using Biacore.

[4] = molecular target: T2, human CDH6 with EC2 removed, on HEK293T cells (HEK293T-hCDH6-EC2 deletion) (human, UniProt P55285 54-790); test: FACS, HEK293T-hCDH6-EC2 deletion cells
T2 construct: Signal peptide not removed here
T2 sequence: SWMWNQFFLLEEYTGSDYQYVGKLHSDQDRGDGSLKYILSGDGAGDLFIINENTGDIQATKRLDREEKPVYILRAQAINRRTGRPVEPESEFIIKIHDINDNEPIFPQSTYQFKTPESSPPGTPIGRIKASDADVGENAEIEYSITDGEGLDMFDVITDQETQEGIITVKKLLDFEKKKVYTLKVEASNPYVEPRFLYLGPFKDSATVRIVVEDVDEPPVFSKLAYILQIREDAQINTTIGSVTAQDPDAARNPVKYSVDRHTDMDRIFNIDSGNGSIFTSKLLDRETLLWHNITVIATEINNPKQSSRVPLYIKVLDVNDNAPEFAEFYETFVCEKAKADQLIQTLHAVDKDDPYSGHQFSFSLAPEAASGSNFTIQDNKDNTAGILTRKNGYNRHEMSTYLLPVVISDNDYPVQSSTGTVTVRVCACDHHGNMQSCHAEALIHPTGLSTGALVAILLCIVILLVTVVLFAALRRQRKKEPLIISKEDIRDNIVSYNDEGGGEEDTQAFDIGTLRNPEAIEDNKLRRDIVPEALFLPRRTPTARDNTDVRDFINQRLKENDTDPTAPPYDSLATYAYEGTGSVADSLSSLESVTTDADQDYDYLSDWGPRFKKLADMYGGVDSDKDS

Kd [1]: 18 nM
koff [1]: 0.00821 s⁻¹
kon [1]: 457000 M⁻¹ s⁻¹
B1: hCDH6-1-H2L3 (antibody, V domains shown)
VH: EVQLVQSGAEVKKPGSSVKVSCKASGYTFTNYWMHWVRQAPGQGLEWMGDIDPSHSETHYTQKFKDRVTITVDKSTSTAYMELSSLRSEDTAVYYCARGDLGRFDYWGQGTTVTVSS
VL: DIQMTQSPSSLSASVGDRVTITCRASESVSIHGTHLMHWYQQKPGKPPKLLIYAASNLESGVPSRFSGSGSETDFTFTISSLQPEDIATYYCQQSFEDPWTFGGGTKVEIK
notes: Humanized

EC50 [2]: 0.026 nM
Max OD450 [2]: 1.97 OD450
Kd [3]: 89.8 nM
koff [3]: 0.00468 s⁻¹
kon [3]: 52100 M⁻¹ s⁻¹
B2: hCDH6-6-H2L2 (antibody, V domains shown)
VH: EVQLVQSGAEVKKPGASVKVSCKASGYTFTDYYMAWVRQAPGQGLEWMGYIFPNSGGTDYSQKFKGRVTLTVDKSTSTVYMELSSLRSEDTAVYYCARELGADYGDYYAMDHWGQGTTVTVSS
VL: DIQMTQSPSSLSASVGDRVTITCRASENIDSYLAWYQQKPGKSPKLLVYSATLLADGVPSRFSGSGSGTDYTLTISSLQPEDFATYYCQHYYRTPPTFGQGTKLEIK
notes: Humanized

Kd [1]: 11.4 nM
koff [1]: 0.00504 s⁻¹
kon [1]: 442000 M⁻¹ s⁻¹
B3: CHI-CDH6-1 (antibody, human IgG1, kappa, V domains shown)
VH: QVQLQQPGAELVRPGSSVKLSCKASGYTFTNYWMHWVKQRPIEGLEWIGDIDPSHSETHYTQKFKDKATLTVDKSSSTAYMQLSSLTSEDSAVYYCARGDLGRFDYWGQGTTLTVSS
VL: DIVLTQSPASLAVSLGQRATISCRASESVSIHGTHLMHWYQQKSGQPPKLLIYAASNLESGVPARFSGSGSETDFTFNIHPVEEEDAATYFCQQSFEDPWTFGGGTKLEIKR
notes: also called CHI-hCDH6-1; CH1-CDH6-1

EC50 [2]: 0.028 nM
Max OD450 [2]: 2.02 OD450
Kd [3]: 87.1 nM
koff [3]: 0.00424 s⁻¹
kon [3]: 48700 M⁻¹ s⁻¹
B4: CHI-CDH6-6 (antibody, human IgG1, kappa, V domains shown)
VH: EVQLQQSGPELVKPGDSVKMSCKASGYTFTDYYMAWVRQSHRKSLEWIGYIFPNSGGTDYSQKFKGKATLTVDKSSSTVYMELHSLTSEDSAVYYCARELGADYGDYYAMDHWGQGTSVSVSS
VL: DIQMTQSPASLSASVGETVTITCRASENIDSYLAWYQQKQGKSPQLLVYSATLLADGVPSRFSGSGSGTQYSLKINSLKSEDVARYYCQHYYRTPPTFGSGTKLEIKR
notes: also called CHI-hCDH6-6; chimeric antibody of murine CDH6-6

binding result [4]: no binding
B5: CHI-CDH6-4 (antibody, human IgG1, kappa, V domains shown)
VH: QVQLQQSGPELVKPGASVKISCKASGYAFSNFWMNWVKQRPGKGLEWIGWIYPGDGDTNYNGKFKDKATLTADKSSSTAYIQLSSLTSEDSAVYFCARLYDAWGFFDYWGQGTTLTVSS
VL: QIVLTQSPAIMSASPGQKVTITCSASSSVNYMHWYQQKLGSSPKLWIYDKSKLAPGVPARFSGSGSGTSYSLTISSMEAEDAASYFCHQWSSYPPMTFGGGTKLEIKR
notes: also called CH1-CDH6-4; chimeric antibody of murine CDH6-4
